Test results reported in publication PMC12338864, “Modifications in FLAP's second cytosolic loop influence 5‐LOX interaction, inhibitor binding, and leukotriene formation” (Febs Letters, 2025).

How the values were obtained:
FLAP(S108Δ) (human) = molecular target: T1, FLAP(S108Δ) (human) (UniProt P20292)
T1 sequence: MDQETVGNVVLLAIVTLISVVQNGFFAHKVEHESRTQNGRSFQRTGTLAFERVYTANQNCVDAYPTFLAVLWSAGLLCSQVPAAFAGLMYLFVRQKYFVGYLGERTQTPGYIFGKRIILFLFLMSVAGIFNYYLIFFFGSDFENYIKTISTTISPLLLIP

FLAP(S108D) = molecular target: T2, FLAP(S108D) (human, UniProt P20292 1-161, S108D); experiment: cell-based or functional assay
T2 sequence (looked up): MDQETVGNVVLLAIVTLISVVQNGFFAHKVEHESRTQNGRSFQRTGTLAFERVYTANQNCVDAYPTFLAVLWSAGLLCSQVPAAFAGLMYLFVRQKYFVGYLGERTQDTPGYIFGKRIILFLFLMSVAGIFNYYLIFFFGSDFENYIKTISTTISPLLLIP

FLAP(T109C) = molecular target: T3, FLAP(T109C) (human, UniProt P20292 1-161, T109C); experiment: cell-based or functional assay
T3 sequence (looked up): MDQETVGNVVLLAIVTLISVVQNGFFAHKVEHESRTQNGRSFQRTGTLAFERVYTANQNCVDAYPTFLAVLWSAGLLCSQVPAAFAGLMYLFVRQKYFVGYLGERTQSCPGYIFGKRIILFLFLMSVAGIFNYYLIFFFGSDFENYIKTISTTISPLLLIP

FLAP(S41D) = molecular target: T4, FLAP(S41D) (human, UniProt P20292 1-161, S41D); experiment: cell-based or functional assay
T4 sequence (looked up): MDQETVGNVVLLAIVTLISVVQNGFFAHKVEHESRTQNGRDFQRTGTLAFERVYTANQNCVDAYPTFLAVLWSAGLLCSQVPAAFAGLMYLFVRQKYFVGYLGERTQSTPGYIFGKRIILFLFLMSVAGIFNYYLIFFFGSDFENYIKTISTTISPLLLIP

ratio of 5‐H(P)ETE to trans‐isomers of LTB4 formed in HEK293 cells co-expressing 5-LOX and the FLAP mutant (2.5 μM A23187 plus 2 μM AA, vehicle); wildtype about 1.2 (FLAP(S108Δ) (human)): 3.2
ratio of 5‐H(P)ETE to trans‐isomers of LTB4 formed in HEK293 cells co-expressing 5-LOX and the FLAP mutant (2.5 μM A23187 plus 2 μM AA, vehicle); wildtype about 1.2 (FLAP(S108D)): 2
ratio of 5‐H(P)ETE to trans‐isomers of LTB4 formed in HEK293 cells co-expressing 5-LOX and the FLAP mutant (2.5 μM A23187 plus 2 μM AA, vehicle); wildtype about 1.2 (FLAP(T109C)): 2.6
ratio of 5‐H(P)ETE to trans‐isomers of LTB4 formed in HEK293 cells co-expressing 5-LOX and the FLAP mutant (2.5 μM A23187 plus 2 μM AA, vehicle); wildtype about 1.2 (FLAP(S41D)): 2.3
B1: 5-lipoxygenase (enzyme, human, UniProt P09917 1-674, looked up)
chain: MPSYTVTVATGSQWFAGTDDYIYLSLVGSAGCSEKHLLDKPFYNDFERGAVDSYDVTVDEELGEIQLVRIEKRKYWLNDDWYLKYITLKTPHGDYIEFPCYRWITGDVEVVLRDGRAKLARDDQIHILKQHRRKELETRQKQYRWMEWNPGFPLSIDAKCHKDLPRDIQFDSEKGVDFVLNYSKAMENLFINRFMHMFQSSWNDFADFEKIFVKISNTISERVMNHWQEDLMFGYQFLNGCNPVLIRRCTELPEKLPVTTEMVECSLERQLSLEQEVQQGNIFIVDFELLDGIDANKTDPCTLQFLAAPICLLYKNLANKIVPIAIQLNQIPGDENPIFLPSDAKYDWLLAKIWVRSSDFHVHQTITHLLRTHLVSEVFGIAMYRQLPAVHPIFKLLVAHVRFTIAINTKAREQLICECGLFDKANATGGGGHVQMVQRAMKDLTYASLCFPEAIKARGMESKEDIPYYFYRDDGLLVWEAIRTFTAEVVDIYYEGDQVVEEDPELQDFVNDVYVYGMRGRKSSGFPKSVKSREQLSEYLTVVIFTASAQHAAVNFGQYDWCSWIPNAPPTMRAPPPTAKGVVTIEQIVDTLPDRGRSCWHLGAVWALSQFQENELFLGMYPEEHFIEKPVKEAMARFRKNLEAIVSVIAERNKKKQLPYYYLSPDRIPNSVAI
